Columns and labels:
[1] = molecular target: the molecule itself; assay: non-reducing SDS-PAGE with immunodecoration
[2] = molecular target: T1, N-terminally FLAG tagged Tgl2 (S. cerevisiae, UniProt P54857 1-326); assay: native gel or EMSA
T1 sequence (looked up): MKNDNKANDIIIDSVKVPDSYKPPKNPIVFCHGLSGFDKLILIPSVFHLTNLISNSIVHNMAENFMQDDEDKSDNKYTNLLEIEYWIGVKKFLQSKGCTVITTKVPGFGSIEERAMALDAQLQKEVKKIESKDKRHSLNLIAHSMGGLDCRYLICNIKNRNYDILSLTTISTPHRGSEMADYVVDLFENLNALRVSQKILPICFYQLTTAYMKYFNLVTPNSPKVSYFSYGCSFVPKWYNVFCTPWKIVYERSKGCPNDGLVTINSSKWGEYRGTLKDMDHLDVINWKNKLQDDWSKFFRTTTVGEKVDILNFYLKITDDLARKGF

B1: N-terminally HA tagged Tgl2 (natural protein, S. cerevisiae, UniProt P54857 1-326, looked up)
chain: T1 sequence (looked up)
Q: How did the “stoichiometry N” value [1] turn out when B1 was run?
A: 2

Q: What about the “stoichiometry N” value [2] of the same binder?
A: ≥ 2

Source: doi:10.1101/2024.05.08.593122 (bioRxiv, 2024)
